In this assay the target is soluble form of cation-independent mannose-6-phosphate receptor (lacking the membrane anchor sequence). Nature of the assay: SPR (Biacore), soluble CIMPR immobilised on dextran chip, analyte flowed at 20 µL/min, RU after 3 min less control cell. On the technique in general: Surface plasmon resonance follows binding to a sensor surface in real time, without labels.

As to “α-galactosidase conjugated to 10 kDa 4-arm dendrimer (star) hydrazide PEG (Hz4PEG), prepared with 10% w/v PEG (from UniProt P06280 32-429) (enzyme)”, the fold higher concentration needed for the same change in RU, against unmodified α-galactosidase worked out at 10 fold.
